According to ChEMBL document CHEMBL3769311, “The natural flavone fukugetin as a mixed-type inhibitor for human tissue kallikreins” (Bioorg Med Chem Lett, 2016):
Blank lines part the entries; values can stand above or below the compound they belong to. Active and inactive are the calls of the source. The calls are words filed in the database; no cut-off is given here.

Legend:
[1] = target: Kallikrein-1 (Homo sapiens) (UniProt P06870); conditions: 2 to 10 uM
[2] = system: O=C1CC(c2ccc(O)c(O)c2)Oc2c1c(O)cc(O)c2[C@@H]1C(=O)c2c(O)cc(O)cc2O[C@H]1c1ccc(O)cc1; conditions: Homo sapiens; 2 uM
Description: Mixed-type inhibition of human tissue kallikrein-1 expressed in baculovirus infected insect cells using Abz-KLRSSQ-EDDnp as substrate assessed as substrate Km at 2 uM by Lineweaver-Burk plot analysis

[3] = system: O=C1CC(c2ccc(O)c(O)c2)Oc2c1c(O)cc(O)c2[C@@H]1C(=O)c2c(O)cc(O)cc2O[C@H]1c1ccc(O)cc1; conditions: Homo sapiens; 2 uM; remark: listed apart in the source
Description: Mixed-type inhibition of human tissue kallikrein-1 expressed in baculovirus infected insect cells using Abz-KLRSSQ-EDDnp as substrate assessed as enzyme Vmax at 2 uM by Lineweaver-Burk plot analysis

[4] = system: O=C1CC(c2ccc(O)c(O)c2)Oc2c1c(O)cc(O)c2[C@@H]1C(=O)c2c(O)cc(O)cc2O[C@H]1c1ccc(O)cc1; conditions: Homo sapiens; 10 uM
Description: Mixed-type inhibition of human tissue kallikrein-1 expressed in baculovirus infected insect cells using Abz-KLRSSQ-EDDnp as substrate assessed as enzyme Vmax at 10 uM by Lineweaver-Burk plot analysis

[5] = system: O=C1CC(c2ccc(O)c(O)c2)Oc2c1c(O)cc(O)c2[C@@H]1C(=O)c2c(O)cc(O)cc2O[C@H]1c1ccc(O)cc1; conditions: Homo sapiens; 8 uM
Description: Mixed-type inhibition of human tissue kallikrein-1 expressed in baculovirus infected insect cells using Abz-KLRSSQ-EDDnp as substrate assessed as substrate Km at 8 uM by Lineweaver-Burk plot analysis

[6] = system: O=C1CC(c2ccc(O)c(O)c2)Oc2c1c(O)cc(O)c2[C@@H]1C(=O)c2c(O)cc(O)cc2O[C@H]1c1ccc(O)cc1; conditions: Homo sapiens; 4 uM
Description: Mixed-type inhibition of human tissue kallikrein-1 expressed in baculovirus infected insect cells using Abz-KLRSSQ-EDDnp as substrate assessed as substrate Km at 4 uM by Lineweaver-Burk plot analysis

[7] = system: O=C1CC(c2ccc(O)c(O)c2)Oc2c1c(O)cc(O)c2[C@@H]1C(=O)c2c(O)cc(O)cc2O[C@H]1c1ccc(O)cc1; conditions: Homo sapiens; 8 uM; remark: listed apart in the source
Description: Mixed-type inhibition of human tissue kallikrein-1 expressed in baculovirus infected insect cells using Abz-KLRSSQ-EDDnp as substrate assessed as enzyme Vmax at 8 uM by Lineweaver-Burk plot analysis

[8] = system: O=C1CC(c2ccc(O)c(O)c2)Oc2c1c(O)cc(O)c2[C@@H]1C(=O)c2c(O)cc(O)cc2O[C@H]1c1ccc(O)cc1; conditions: Homo sapiens; 10 uM; remark: listed apart in the source
Description: Mixed-type inhibition of human tissue kallikrein-1 expressed in baculovirus infected insect cells using Abz-KLRSSQ-EDDnp as substrate assessed as substrate Km at 10 uM by Lineweaver-Burk plot analysis

[9] = system: O=C1CC(c2ccc(O)c(O)c2)Oc2c1c(O)cc(O)c2[C@@H]1C(=O)c2c(O)cc(O)cc2O[C@H]1c1ccc(O)cc1; conditions: Homo sapiens; 4 uM; remark: listed apart in the source
Description: Mixed-type inhibition of human tissue kallikrein-1 expressed in baculovirus infected insect cells using Abz-KLRSSQ-EDDnp as substrate assessed as enzyme Vmax at 4 uM by Lineweaver-Burk plot analysis

inhibition [1]: Active
Compound: O=C1CC(c2ccc(O)c(O)c2)Oc2c1c(O)cc(O)c2[C@@H]1C(=O)c2c(O)cc(O)cc2O[C@H]1c1ccc(O)cc1 (some centres undefined)

Compound: Kallikrein-1 (Homo sapiens), P06870
Km [2]: 0.8 µM
Vmax [3]: 387 µM/s
Vmax [4]: 160 µM/s
Km [5]: 0.93 µM
Km [6]: 0.85 µM
Vmax [7]: 201 µM/s
Km [8]: 1.12 µM
Vmax [9]: 285 µM/s
